Consider 4 molecules from article PMC4934914, “Crystal Structure of Bacillus subtilis Cysteine Desulfurase SufS and Its Dynamic Interaction with Frataxin and Scaffold Protein SufU” (PLoS ONE, 2016).

First the molecules themselves.
B1: Bacillus subtilis cysteine desulfurase SufS (enzyme)
chain: MNITDIREQFPILHQQVNGHDLVYLDSAATSQKPRAVIETLDKYYNQYNSNVHRGVHTLGTRATDGYEGAREKVRKFINAKSMAEIIFTKGTTTSLNMVALSYARANLKPGDEVVITYMEHHANIIPWQQAVKATGATLKYIPLQEDGTISLEDVRETVTSNTKIVAVSHVSNVLGTVNPIKEMAKIAHDNGAVIVVDGAQSTPHMKIDVQDLDCDFFALSSHKMCGPTGVGVLYGKKALLENMEPAEFGGEMIDFVGLYESTWKELPWKFEAGTPIIAGAIGLGAAIDFLEEIGLDEISRHEHKLAAYALERFRQLDGVTVYGPEERAGLVTFNLDDVHPHDVATVLDAEGIAVRAGHHCAQPLMKWLDVTATARASFYLYNTEEEIDKLVEALQKTKEYFTNVF
modifications: pyridoxal-5'-phosphate bound to Lys224 as an aldimine; Cys361-persulfide (in the crystal)
notes: cysteine desulfurase SufS of Bacillus subtilis; The structure 'could be built to completeness'; also called BsSufS
B2: fluorophore-labelled BsFra (natural protein, Bacillus subtilis)
chain: MDVFSEYLAGIADPFHRERTEEVLTWIKNKYPNLHTEIKWNQPMFTDHGTFIIGFSVSKKHLAVAPEKVTIAHVEDDIVKAGYDYTEQLIRIPWNGPVDYTLLEKMIEFNILDKADCSTFWRK
modifications: labelled with the Monolith NT.115 Protein Labeling Kit RED MALEIMID (cysteine-reactive)
notes: frataxin homolog Fra (formerly YdhG) of Bacillus subtilis, as the chain of m3; Same protein as m3, with a red fluorophore on cysteine for MST; also called labeled BsFra; fluorophore-tagged frataxin
B3: Bacillus subtilis frataxin homolog Fra (natural protein)
chain: B2 chain
notes: frataxin homolog Fra (formerly YdhG) of Bacillus subtilis; Unlabelled form, used in H/DX and activity assays; also called BsFra; YdhG (former name)
B4: Bacillus subtilis scaffold protein SufU (natural protein)
chain: MSFNANLDTLYRQVIMDHYKNPRNKGVLNDSIVVDMNNPTCGDRIRLTMKLDGDIVEDAKFEGEGCSISMASASMMTQAIKGKDIETALSMSKIFSDMMQGKEYDDSIDLGDIEALQGVSKFPARIKCATLSWKALEKGVAKEEGGN
notes: Fe-S cluster scaffold protein SufU of Bacillus subtilis; also called BsSufU

Data set [1] deals with the molecule itself. The data set is described as follows: crystal structure; BsSufS crystallised at 20 mg/ml in 0.1 M HEPES pH 7.5, 50% (v/v) PEG 400, 20°C; one molecule in the asymmetric unit, homodimer across the crystallographic symmetry axis; 1.7 Å.
Data set [2] has as its target B4. The experiment in a line: MST; labelled BsFra (0.25 μM) mixed 1:1 with a dilution series of the partner (560 μM to 0.030 μM); 25 mM Tris-Cl, 100 mM NaCl, 10 mM 2-mercaptoethanol, pH 7.5; 25°C; Hill model; average of three measurements. The note with it: both partners purified.
Another data set concerns the target T1, BsSufS/BsSufU complex (Bacillus subtilis, UniProt O32164 1-406; O32163 1-147).
T1 construct: cysteine desulfurase SufS of Bacillus subtilis, as the chain of m1; scaffold protein SufU of Bacillus subtilis, as the chain of m2; SufS is described as a homodimer; also called BsSufU/BsSufS; SufS/SufU complex; copies: 2 +
The data set is described as above. The settings on record: both partners purified.

Data set [3] deals with B1. The description is as above. The note with it: both partners purified.
Data set [4] has as its target B4. The experiment in a line: HDX-MS; 60 μM of each component in 25 mM Tris-Cl pH 7.5, 100 mM NaCl; exchange in D2O buffer at 25°C for 15, 30, 60 or 600 s; online pepsin digestion. The note with it: both partners purified.
The target of data set [5] is B1. The data set is described as above. The note with it: both partners purified.

For B1, the stoichiometry N (in general, the number of molecules, sites or subunits per partner or assembly) in data set [1] stood at 2.

In the case of B2, the Kd (usually the constant that tells how readily two partners part at equilibrium) amounted to 57.4 ± 13.8 µM in data set [2], 32.5 ± 3.6 µM with BsSufS/BsSufU complex and 50.6 ± 17.4 µM in data set [3].

B3: the binding result in data set [4] and in data set [5] was “binds” each time. For B4, the binding result in data set [5] is on record as “binds”.
